One test deals with HLA-A*01:01. In words: IEDB peptide-MHC binding, purified MHC/direct/fluorescence; filed as Kd, often an IC50 or EC50 that approximates it; ≥ and ≤ were set here for values at or beyond the usual limits of such assays. Particulars: source organism: Giardia lamblia ATCC 50803.
Another test addresses HLA-A*02:01. The description is as above. Particulars: source organism: Giardia lamblia ATCC 50803.
A further test concerns the target HLA-A*02:06. The description is as above. Particulars: source organism: Giardia lamblia ATCC 50803.
For a further test, the target named is HLA-A*02:11. The description is as above. Particulars: source organism: Giardia lamblia ATCC 50803.
Another test addresses HLA-A*02:12. Described as above. Particulars: source organism: Giardia lamblia ATCC 50803.
Another test concerns the target HLA-A*02:16. The test is described as above. Particulars: source organism: Giardia lamblia ATCC 50803.
Test [1] concerns the target HLA-A*03:01. Described as above. Particulars: source organism: Giardia lamblia ATCC 50803.
For test [2], the target named is HLA-A*11:01. The test is described as above.
For another test, the target named is HLA-A*24:02. The description is as above. Particulars: source organism: Giardia lamblia ATCC 50803.
Test [3] addresses HLA-A*31:01. The test is described as above.
A further test has as its target HLA-B*07:02. The description is as above.
For test [4], the target named is HLA-B*08:02. The description is as above.
The next test concerns the target HLA-B*15:01. The test is described as above. Particulars: source organism: Giardia lamblia ATCC 50803.
The next test deals with HLA-B*18:01. The test is described as above. Particulars: source organism: Giardia lamblia ATCC 50803.
A further test has as its target HLA-B*27:05. The description is as above.
The target in the next test is HLA-B*40:01. The description is as above.
In a further test the target is HLA-B*44:02. Described as above. Particulars: source organism: Giardia lamblia ATCC 50803.
Another test deals with HLA-B*46:01. The description is as above.
The next test addresses HLA-B*58:01. The description is as above.
The next test deals with HLA-A*02:03. The test can be described thus: IEDB peptide-MHC binding, purified MHC/competitive/fluorescence; filed as Kd, often an IC50 or EC50 that approximates it; ≥ and ≤ were set here for values at or beyond the usual limits of such assays. Particulars: source organism: Giardia lamblia ATCC 50803.
The next test deals with HLA-C*01:02. The test can be described thus: IEDB peptide-MHC binding, purified MHC/direct/fluorescence; filed as Kd, often an IC50 or EC50 that approximates it; ≥ and ≤ were set here for values at or beyond the usual limits of such assays. Particulars: source organism: Homo sapiens.
For another test, the target named is HLA-A*68:02. The description is as above. Particulars: source organism: Mycobacterium tuberculosis.
For a further test, the target named is HLA-B*08:01. The test is described as above. Particulars: source organism: Mycobacterium tuberculosis str. Haarlem.
The target in another test is HLA-B*08:03. The description is as above. Particulars: source organism: Mycobacterium tuberculosis str. Haarlem.
A further test concerns the target HLA-B*48:01. Described as above. Particulars: source organism: Mycobacterium tuberculosis.
The target of a further test is HLA-B*57:01. The description is as above. Particulars: source organism: Mycobacterium tuberculosis.
The target in test [5] is HLA-A*03:01. The test can be described thus: IEDB peptide-MHC binding, purified MHC/competitive/fluorescence; filed as Kd, often an IC50 or EC50 that approximates it; ≥ and ≤ were set here for values at or beyond the usual limits of such assays. Particulars: source organism: Human immunodeficiency virus 1.
Test [6] has as its target HLA-A*11:01. Described as above. Particulars: source organism: Human immunodeficiency virus 1.
The target in another test is HLA-A*26:01. The test is described as above. Particulars: source organism: Human immunodeficiency virus 1.
A further test addresses HLA-A*26:03. The description is as above. Particulars: source organism: Human immunodeficiency virus 1.
The target of another test is HLA-A*30:01. Described as above. Particulars: source organism: Human immunodeficiency virus 1.
The target in test [7] is HLA-A*31:01. Described as above. Particulars: source organism: Human immunodeficiency virus 1.
Test [8] concerns the target HLA-B*08:02. The description is as above. Particulars: source organism: Human immunodeficiency virus 1.
The mark [9] stands for this setting: source organism: Giardia lamblia ATCC 50803.
Where [10] appears, read: source organism: Mycobacterium tuberculosis.

The term Kd denotes a measure of binding affinity in units of concentration. Higher therefore signals weaker binding.

For the sequence HCIDKTPGL, the Kd with HLA-A*01:01 is not below 20 µM; in the test with HLA-A*02:01, 0.319 µM; with HLA-A*02:06, 0.106 µM; with HLA-A*02:11, 0.914 µM; in the test with HLA-A*02:12, 0.26 µM; with HLA-A*02:16 it was 0.39 µM. The Kd in the test with HLA-A*03:01 [1], with HLA-A*11:01 [2] (setting [9]), with HLA-A*24:02, with HLA-A*31:01 [3] (setting [9]), in the test with HLA-B*07:02 (setting [9]) and with HLA-B*08:02 [4] (setting [9]) was not below 20 µM in each case. The Kd with HLA-B*15:01, with HLA-B*18:01, in the test with HLA-B*27:05 (setting [9]), with HLA-B*40:01 (setting [9]), in the test with HLA-B*44:02 and with HLA-B*46:01 (setting [9]) was not below 20 µM each time. The Kd in the test with HLA-B*58:01 (setting [9]) was not below 20 µM; in the test with HLA-A*02:03, 2.48 µM.
In the test with HLA-C*01:02, PLPDRSLPAL yielded a Kd not above 0.0001 µM.
On to TLLESFLFY, for which the Kd with HLA-A*11:01 [2] (setting [10]) is 0.01 µM; in the test with HLA-A*31:01 [3] (setting [10]) it was not below 20 µM; in the test with HLA-A*68:02, not below 20 µM; in the test with HLA-B*07:02 (setting [10]), not below 20 µM; in the test with HLA-B*08:01 it was not below 20 µM; with HLA-B*08:02 [4] (source organism: Mycobacterium tuberculosis str. Haarlem) it was not below 20 µM. Also, the Kd in the test with HLA-B*08:03, with HLA-B*27:05 (setting [10]), with HLA-B*40:01 (setting [10]), with HLA-B*46:01 (setting [10]), with HLA-B*48:01 and with HLA-B*57:01 was not below 20 µM each time. This sequence also had a Kd in the test with HLA-B*58:01 (setting [10]) not below 20 µM.
In the case of IATLYCVHQR, the Kd with HLA-A*03:01 [5] is not below 20 µM; with HLA-A*11:01 [6], 5.82 µM; with HLA-A*26:01, not below 20 µM; with HLA-A*26:03, not below 20 µM; in the test with HLA-A*30:01, 5.99 µM; with HLA-A*31:01 [7] it was 0.761 µM. The Kd in the test with HLA-B*08:02 [8] is not below 20 µM.
